The values below come from patent US20260284221 (published 2026).

Residue numbers refer to the chain shown, from its start.

What all share (assay): BLI pH 7.4
One assay deals with T1, Rat Trop2 (rat, UniProt Q6P9Z6).
T1 chain: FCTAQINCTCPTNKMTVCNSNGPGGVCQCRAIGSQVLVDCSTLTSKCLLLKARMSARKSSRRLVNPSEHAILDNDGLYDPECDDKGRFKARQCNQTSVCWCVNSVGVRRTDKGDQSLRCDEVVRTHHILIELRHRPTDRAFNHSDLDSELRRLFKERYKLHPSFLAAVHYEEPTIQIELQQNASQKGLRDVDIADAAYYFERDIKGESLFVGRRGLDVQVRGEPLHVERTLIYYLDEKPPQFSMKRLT

Another assay concerns the target T2, Mouse Trop2 (mouse, UniProt Q8BGV3).
T2 chain: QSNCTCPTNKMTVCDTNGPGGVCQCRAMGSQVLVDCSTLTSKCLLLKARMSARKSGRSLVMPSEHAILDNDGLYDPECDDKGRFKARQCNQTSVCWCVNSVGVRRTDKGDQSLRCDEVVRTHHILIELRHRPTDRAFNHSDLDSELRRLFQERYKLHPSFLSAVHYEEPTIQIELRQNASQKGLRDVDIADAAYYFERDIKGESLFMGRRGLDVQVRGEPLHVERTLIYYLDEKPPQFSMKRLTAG

Another assay deals with T3, Rhesus macaque Trop2 (rhesus macaque).
T3 chain: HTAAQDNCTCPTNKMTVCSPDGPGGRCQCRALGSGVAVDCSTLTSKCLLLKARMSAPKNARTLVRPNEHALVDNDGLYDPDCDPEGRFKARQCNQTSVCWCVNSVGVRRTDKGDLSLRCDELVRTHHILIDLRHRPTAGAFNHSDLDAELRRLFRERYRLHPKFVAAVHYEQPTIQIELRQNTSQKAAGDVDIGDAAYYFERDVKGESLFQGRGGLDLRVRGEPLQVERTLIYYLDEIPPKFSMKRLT

A further assay concerns the target T4, Human Trop2 (human, UniProt P09758).
T4 chain: T3 chain with V36M, N67S, V204I

B1: L2-conjugated anti-Trop2 antibody (IB12) (antibody, V domains shown)
VH: EVQLVESGGGLVQPGGSLRLSCAASGFTFNNYAMSWVRQAPGKGLEWVSTISSDGTYTYYADSVKGRFTISRDNSKNTLYLQMNSLRAEDTAVYYCARHPPSYYYAFDYWGQGTTLTVSS
VL: EIVLTQSPGTLSLSPGERATLSCRASESVDSYGNSFIHWYQQKPGQAPRLLIYLASNLESGIPDRFSGSGSGTDFTLTISRLEPEDFAVYYCQQNNEDLWTFGGGTKLEIK
modifications: conjugated with L2 linker; heavy constant SEQ2, light constant SEQ4
In the case of B1, the binding result in the assay with Rat Trop2 and in the assay with Mouse Trop2 was “no binding” each time. Further, the figures for the Kd with Rhesus macaque Trop2 and in the assay with Human Trop2 were below 0.001 nM and 22.6 nM, respectively.

As usually defined, the Kd is the equilibrium constant for the complex coming apart. A low value points to higher affinity.
